Values joined by “and” are separate entries in the source; they are usually repeats but may differ in a detail not shown here. Equal entries are not always repeated.
B1: eCIRP: extracellular cold-inducible RNA-binding protein; recombinant murine, produced in our laboratory (protein, UniProt P60824 1-172, looked up)
Cold-inducible RNA-binding …: MASDEGKLFVGGLSFDTNEQALEQVFSKYGQISEVVVVKDRETQRSRGFGFVTFENIDDAKDAMMAMNGKSVDGRQIRVDQAGKSSDNRSRGYRGGSAGGRGFFRGGRSRGRGFSRGGGDRGYGGGRFESRSGGYGGSRDYYASRSQGGSYGYRSSGGSYRDSYDSYATHNE

Legend:
ZBP1 = ZBP1 protein in PVECs cocultured with neutrophils, Western blot; format: cell-based, mouse; conditions: for ZBP1 protein level (Figure 4F): 10 μM peptide, 16 h, individual replicates
Experimental: Wild-type PVECs (5 × 10^5) were cocultured with sorted DLL4^+ neutrophils (5 × 10^5) or DLL4^– neutrophils (5 × 10^5) and then treated with different dosages of peptides or 10 μM DAPT (Thermo Fisher Scientific), 10 μM NDI (GenScript), or 10 μM NDI scramble (GenScript). Notch1-knockdown PVECs (5 × 10^5) were cocultured with sorted DLL4^+ neutrophils (5 × 10^5). After 16 hours, neutrophils were washed away by PBS, and PVECs were collected for further experiments. Cell viability was evaluated by propidium iodide staining using the FITC Annexin V Apoptosis Detection Kit I (catalog 556547, BD Pharmingen). Cell death was quantified as the percentage of propidium iodide–positive cells by flow cytometry.
PVECs and lung tissue were collected in previous steps. Whole-cell proteins were extracted, and the protein concentration was measured using an ABC protein assay kit (catalog 5000002, Bio-Rad). Proteins were separated using NuPAGE 4%–12% Bis-Tris gels (Invitrogen), transferred to PVDF membranes, and immunoblotted with the antibodies indicated in the figure legends according to the manufacturer’s recommendations. The ZBP1 antibody (catalog PA5-20455; 1:1,000) used in this study was obtained from Thermo Fisher Scientific, and the c-GSDMD (catalog 10137S; 1:250), GSDMD (catalog 39754S; 1:1000), c-caspase-3 (catalog 9661L; 1:250), caspase-3 (catalog 9662S; 1:1,000), p-MLKL (catalog 37333S; 1:250), MLKL (catalog 37705S; 1:1,000), N1ICD (c-Notch1) (catalog 4147S; 1:250), and Notch1 (catalog 3608S; 1:1,000) antibodies were obtained from Cell Signaling Technology. GAPDH (catalog 60004-1-Ig; 1:10,000) and β-actin (catalog A5441, Sigma-Aldrich; 1:5,000) were obtained from ProteinTech. After the blots were incubated with primary antibodies, the membranes were washed 3 times, and the blots were subsequently incubated with the corresponding fluorescent secondary antibody (LI-COR). Bands were detected using an Odyssey FC Dual-Mode Imaging system 2800 (LI-COR).

[1] = test system: DLL4 expression on WT BMDNs; assay: Frequency of DLL4^+ neutrophils (Ly6G^+DLL4^+), WT mouse BMDNs, flow cytometry; format: cell-based; conditions: for percentage of DLL4^+ neutrophils (Figure 1C): eCIRP 1 μg/mL, WT BMDNs 1 × 10^6/mL
Text: Mice were anesthetized by 2% isoflurane inhalation, and the femora and tibiae were dissected. The bone marrow was flushed out with calcium- and magnesium-free HBSS using a 25-gauge needle into a Petri dish. Suspensions of cells were filtered through a 70 μm cell strainer (Corning), and bone marrow–derived neutrophils (BMDNs) were purified by negative selection using the EasySep mouse neutrophil enrichment kit (catalog 19762, STEMCELL Technologies). The purity of the sorted neutrophils was assessed by staining of the cells with APC-Ly6G antibody (clone 1A8, BioLegend) using a BD LSRFortessa flow cytometer (BD Biosciences).
In the time course experiments, BMDNs (1 × 10^6) were stimulated with eCIRP (1 μg/mL) for 2, 4, 6, and 12 hours. In the dose-response experiments, BMDNs (1 × 10^6) were treated with 0, 0.2, 0.5, or 1.0 μg/mL eCIRP for 12 hours. Single-cell suspensions were then stained with APC-conjugated anti–mouse Ly6G (clone 1A8, catalog 127614, BioLegend) and PE-conjugated anti-DLL4 (clone HMD4-1, catalog 130807, BioLegend), and analyzed by flow cytometry (BD LSRFortessa, BD Biosciences) to detect DLL4^+ neutrophils (Ly6G^+DLL4^+). Unstained cells were used to set voltages, and single-color controls were applied for compensation adjustment. Two hundred fifty microliters of whole blood obtained from sham, CLP, and PBS- or NDI-treated mice was taken into Falcon 15 mL conical tubes, and 5 mL red blood cell (RBC) lysis buffer (BD Biosciences) was added. After 1–2 minutes of incubation at room temperature, the samples were centrifuged at 300g for 10 minutes. Supernatants were aspirated, and the cell pellet was washed by suspension of the cells in 5 mL fluorescence-activated cell sorting (FACS) buffer containing 2% fetal bovine serum and centrifuged at 300g for 10 minutes. The supernatant was discarded, and the cell pellet was dissolved in […] FACS buffer. Lung tissues were finely diced using a sterile surgical blade and suspended in Ca^++- and Mg^++-free Hanks balanced salt solution (HBSS; Corning). Tissue digestion was performed in HBSS containing 100 U/mL of collagenase I (Worthington Biochemical) and 20 U/mL DNase I (Worthington Biochemical) at 37°C for 30 minutes with periodic shaking. Digested tissue fragments were crushed with a 10 mL syringe plunger and passed through a 70 μm cell strainer (Corning). Lysis of RBCs in lung cell suspensions was conducted using RBC lysis buffer (BD Biosciences). The isolated lung cells were counted using a microscope (Eclipse TS100, Nikon). To detect mouse DLL4^+ neutrophils, single-cell suspensions were stained with anti-mouse APC-Ly6G (clone 1A8, catalog 127614, BioLegend) and PE-DLL4 (clone HMD4-1, catalog 130807, BioLegend) and assessed for the detection of DLL4^+ neutrophils (Ly6G^+DLL4^+) by flow cytometry (BD LSRFortessa, BD Biosciences). Unstained cells were used to establish the flow cytometer voltage setting, and single-color positive controls were used to adjust the compensation. The acquisition was performed on 50,000 events using a BD LSRFortessa flow cytometer (BD Biosciences), and data were analyzed with FlowJo software (Tree Star). BMDNs were stimulated with eCIRP ([…]) for 2 hours. This time point was selected to maximize the viability and functionality of DLL4^+ neutrophils for downstream experiments, given their relatively short lifespan. After stimulation, cells were washed with PBS and resuspended in 1 mL FACS buffer, and DLL4^+ neutrophils (Ly6G^+DLL4^+) and DLL4^– neutrophils (Ly6G^+DLL4^–) were sorted by flow cytometry using a BD FACSAria IIu cell sorter (BD Biosciences).

| Molecule | effect on ZBP1 protein (ZBP1; 10 μM NDI, DLL4^+ neutrophil coculture) | effect on ZBP1, c-GSDMD, c-caspase-3, and p-MLKL (ZBP1; 10 μM NDI, DLL4^– neutrophil coculture) | ZBP1 protein level (Figure 4F) (ZBP1; DLL4^+ neutrophil coculture) | ZBP1 protein level (Figure 4F) (ZBP1; DLL4^– neutrophil coculture) | percentage of DLL4^+ neutrophils (Figure 1D) ([1]; 0.2 μg/mL rmCIRP, 12 h, WT BMDNs, individual replicates) | percentage of DLL4^+ neutrophils (Figure 1D) ([1]; 0.5 μg/mL rmCIRP, 12 h, WT BMDNs, individual replicates) | increase in DLL4^+ neutrophils compared with baseline ([1]; 1 μg/mL eCIRP, 12 hours) | percentage of DLL4^+ neutrophils (Figure 1D) ([1]; 1 μg/mL rmCIRP, 12 h, WT BMDNs, individual replicates) | frequency of DLL4^+ neutrophils (Figure 1E) ([1]; WT BMDNs, 1 μg/mL eCIRP, 12 h, individual replicates) | percentage of DLL4^+ neutrophils (Figure 1C) ([1]; 2 h, individual replicates) | percentage of DLL4^+ neutrophils (Figure 1C) ([1]; 4 h, individual replicates) | percentage of DLL4^+ neutrophils (Figure 1C) ([1]; 6 h, individual replicates) | percentage of DLL4^+ neutrophils (Figure 1C) ([1]; 12 h, individual replicates) | effect on frequency of DLL4^+ neutrophils ([1]; mouse BMDNs) |
| --- | --- | --- | --- | --- | --- | --- | --- | --- | --- | --- | --- | --- | --- | --- |
| ECAGSPCHNGGTCEDGI [NDI] | significantly attenuated by NDI treatment | less effect on the DLL4^– neutrophil coculture group | 3.384 and 1.384 and 0.9406 and 0.8744 and 0.4031 and 0.6648 and 0.9901 and 0.7708 and 1.063 and 1.037 and 1.784 and 1.376 and 1.24 and 1.14 | 1.4609 and 1.716 and 1.338 and 0.9958 and 0.6394 |  |  |  |  |  |  |  |  |  |  |
| B1 |  |  |  |  | 6.79% and 7.39% and 5.07% and 2.01% and 1.58% and 2.94% | 9.65% and 8% and 2.23% and 3.04% and 4.63% and 3.6% | greater than 10 fold | 9.46% and 10.2% and 10.3% and 9.59% and 14.64% and 11.2% and 19.6% | 10.6% and 7.8% and 13.4% and 4.22% and 4.99% | 2.37% and 2.69% and 2.61% and 1.38% and 2.29% and 2.02% | 2.2% and 3.33% and 2.32% and 3.85% and 1.73% and 1.34% | 5.6% and 3.69% and 4.86% and 3.28% and 2.75% and 2.78% | 25.8% and 23.2% and 5.76% and 10.3% and 13.1% and 19.7% | significantly increased the frequency (percentage) of DLL4^+ neutrophils in a time- and dose-dependent manner |

Source: paper PMC12700550, “DLL4^+ neutrophils promote Notch1-mediated endothelial PANoptosis to exacerbate acute lung injury in sepsis” (The Journal of Clinical Investigation, 2025)
